Measurements: the DeepSol protein solubility set

Assay: soluble on expression in E. coli; label from the status in PepcDB or PDB records

## MRMIPIKIWAADVDVSIGYRAPRAASNTLGIFSYSAEYTLCTLPISNMTSQSVMFKGGLPADCTCPICEQALRDPIKLNCDHHYCRQCFENENRTPGCAACQTIIQPELCQHDRAKQKQILALPVVCTFESSGCPWDGQLGTLHDHLSECTFKSSLKCEKCGRQFAKNDLEKHRAKCELNRAVCSFCNKTIRDSDRERHPKTCPQVIISCPFQCGLTDRPRLEIEAHCPSCPNVDNVCPFVPYGCTFAGGKESIQQHLSDEPVRHLMYLCDEITDLKGTYELMERDMGSFNDRQTRILSAAETCTEMFGPQLIWKIDKLQQRTNEAKSGADTTIFSVPFMSHRFGYKMMACACLFGDGSSAGKSISLYVLLLKGEFDPTLEWPFHRAIKISLLDQNPRPEDRVNITYVIDPRKLKANEKFLARPRGERNAAFGSQSFCSLAILQNYVKDDKIYVQIDVDRCETLPVQLKSRDAKERKQMLDAMRAKTPDVRLHQVRPVTSQSSSAELRV
  soluble on expression in E. coli: not soluble

## MIGYEFFVSEKLENCKYKYIKAINDYIKQEKSHIIGIDLGKYHYLTASNIDRSFVFVDKHNTLFHLFRKYERRIANKQYDNSEAYSKLKTGLKSHINQVVNEMLEQTSNRFQTVFALDDHGSSHLSFPSLVFDLTYFAIKQRKNESDEILIVDESFTSIECPICHDRNQYNRTNKNKFKCTKCGFIHQNNDIVAASNIAKKGQLLNSLEHHHHHH
  soluble on expression in E. coli: not soluble

## SLTQIQPGVEKFIKDFNDAKKKGEHAYDMTLSYQNFDKGFFNSRFQMQMTFDNGAPDLNIKPGQKVVFDVDVEHGPLPITMLMHGNVIPALAAAKVNLVNNELTQPLFIAAKNKSPVEATLRFAFGGSFSTTLDVAPAEYGKFSFGEGQFTFNGDGSSLSNLDIEGKVEDIVLQLSPMNKVTAKSFTIDSLARLEEKKFPVGESESKFNQINIINHGEDVAQIDAFVAKTRLDRVKDKDYINVNLTYELDKLTKGNQQLGSGEWSLIAESIDPSAVRQFIIQYNIAMQKQLAAHPELANDEVALQEVNAALFKEYLPLLQKSEPTIKQPVRWKNALGELNANLDISIADPAKSSSSTNKDIKSLNFDVKLPLNVVTETAKQLNLSEGMDAEKAQKQADKQISGMMTLGQMFQLITIDNNTASLQLRYTPGKVVFNGQEMSEEEFMSRAGRFVH
  soluble on expression in E. coli: soluble

## GMTASTAPQTEPHKTSAPESGPVMLLVATIKGAWFLASDPARRTWELRGPVFLGHTIHHIVQDPREPERMLMAARTGHLGPTVFRSDDGGGNWTEATRPPAFNKAPEGETGRVVDHVFWLTPGHASEPGTWYAGTSPQGLFRSTDHGASWEPVAGFNDHPMRRAWTGGEQDGTPDGPKMHSILVDPRDPKHLYIGMSSGGVFESTDAGTDWKPLNRGCAANFLPDPNVEFGHDPHCVVQHPAAPDILYQQNHCGIYRMDRREGVWKRIGDAMPREVGDIGFPIVVHQRDPRTVWVFPMDGSDVWPRVSPGGKPAVYVTRDAGESWQRQDRGLPTDQAWLTVKRQAMTADAHAPVGVYFGTTGGEIWASADEGEHWQCIASHLPHIYAVQSARPV
  soluble on expression in E. coli: soluble

## MGSDKIHHHHHHMNFPRPLVPATLVQRYKRFLFDAILADGTAITGSCPNTGSMRGLTIPGSPIWLSEHDSPTRKYRHMLEIVEADGTLVGINTGLPNRIAEEAIMAGQVGNLHTYGTLRREQRYGRNSRIDILLSDAEKGLAYVEVKNVHFSRVRGLAEFPDSPTQRGAKHLEELGDMVEAGHRAIMLYLIQRGDCSRFRICRELDPVYARAFERASARGVEAYAVKCAVSPGQIVAAGPIVVDEPVPAVL
  soluble on expression in E. coli: not soluble

## MGSSHHHHHHHHDYDIPTTENLYFQGSELSSLTAVSPVDGRYGDKVSALRGIFSEYGLLKFRVQVEVRWLQKLAAHAAIKEVPAFAADAIGYLDAIVANFSEEDAARIKTIERTTNHDVKAVEYFLKEKVAEIPELHAVSEFIHFACTSEDINNLSHALMLKTARDEVILPYWRQLIDGIKDLAVQYRDIPLLSRTHGQPATPSTIGKEMANVAYRMERQYRQLNQVEILGKINGAVGNYNAHIAAYPEVDWHQFSEEFVTSLGIQWNPYTTQIEPHDYIAELFDCVARFNTILIDFDRDVWGYIALNHFKQKTIAGEIGSSTMPHKVNPIDFENSEGNLGLSNAVLQHLASKLPVSRWQRDLTDSTVLRNLGVGIGYALIAYQSTLKGVSKLEVNRDHLLDELDHNWEVLAEPIQTVMRRYGIEKPYEKLKELTRGKRVDAEGMKQFIDGLALPEEEKARLKAMTPANYIGRAITMVDELK
  soluble on expression in E. coli: soluble

## MDDRRPQLTEEQLLFRIALTHVKGVGSVLARQLLSAMGSPEAIFSDRKELVQRLPKAPRRLLDAIFSPSVMEEARRKLDQALKAGLNMYFITDDNYPYRLKECVDAPILLYSKGNVDLSPRRVLSIVGTRNITAYGRTATERIVSGLAETIPDLLIVSGLAYGVDVAAHKAALDNGLPTVAVLAHGLDRIYPSGHRSIAMEMLRNGGLLTDYPMGTEPERFNFVGRNRIVAGLSDATLVIESAEKGGSLITAGLAFGYNREVLALPGRATDSRSAGCNALIRDQKAALVSSAQDVLTLLDWSSTIDAKPQTLNFRPDSWPDTPVAECLLRAGTASVDELTRATGLPINDVSAQLFDLELDGLVQSQPGGIYSVI
  soluble on expression in E. coli: not soluble

## MAVDDAQALALFLRDRTGRSSHTLRAYGAELRRLMRWCGTHGFGPFSDLTRQQLLAYRHTLEHGSSGTANTTPPLSEATRTRALAVVASLYGYWYATGYLHANPAAGLSAGSRLEHHHHHH
  soluble on expression in E. coli: not soluble

## MSLGRMFGTDGVRGIANKELTAELAYRLGRAGAYVLTNETHKPKILVGMDTRISGDMLEAALVSGILSVGAEAVCVGIVPTPAVAYLTRKYKADAGVVISASHNPVEYNGIKFFDAKGYKLSDNLEDEIQKIIESDFEGVPLPTGESVGRKVVEESAEEDYIKFAKSTIGTDLKGMKIALDCANGAAYKTAVKTFRELGAQVTVINNDPDGININCNCGSTHPEELMDYVVKKNCDLGLAFDGDADRCLAVDEKGNLIDGDFIMAICGKYLKDKGELHKDVVVVTVMSNMGLFLALDKANIKTVKTKVGDRYVLEEMLKEGYKLGGEQSGHIIFLDYNTTGDGLVTALKICSIVKESRKTLSKLASIMHKLPQVLANAKVPNNKKDIYLEDKEISDEIKKIEEELHGKGRVLIRPSGTEPLVRVMLEGEDQDRLNTLAHGLAELIEKKANEGHHHHHH
  soluble on expression in E. coli: soluble

## MKGIMVQGTASDVGKSLICTALCRIFARRGYKVTPFKSQNMSNNSYITVEGLEIGRAQGIQAEAAMEEASVYMNPILLKPRNDREAEIVCFGQAVDTVSGVKYRDGFYKRGLEAIKQALATLSQSFDMVVIEGAGSPVEVNLNDRELVNMKVAELADVPVILVADIERGGVFASLYGTLELLQPNERKRVVGIIVNKFRGDPELFSSGVQWIEQHLGVPVLGVLPHLPGVRIEGEDSLSKGQVTSVLPRDQSIDIAVLDLPYLSNYTDLEPFRYEEDVAIRFVSSVDALGRPDAIILPGTKSTFHDLQILKEKGFKERLHEYVTTDGTVVAICGGFQMLGHRLIDVAGSDTGIKGATIDGLDLAPVETRFAEKKKTVRSLGQLLHPFGTAKDIYGFEIHLGETDIVDPSIPAFLRVGNHTDGVYLHEGRLIGTYFHHLFFNDDFRSGWLNTLRRKKGLRERPTVELEKCRRASYDQLADEVERVLHVDSLLEKMERWGETS
  soluble on expression in E. coli: soluble

## MGSDKIHHHHHHVYKALFFDVDDTLLNFEQCSREALGKTFRHFSMDYDDTVYELFRSIDQRLWLQQKQGELTVQDVINLRFQELFKQLQLGCSHIPLQTMFQERLAEEFFTEPHAAESLGYLSARYQLFVTSNGILKTQLKRLELAGLLPYFTDVFVSDHIGHEKPSVRFFEECLQRSRLKPSEVLLIGDSLEADMVGAQTSKMDSCWYNPKHRNTDSDVEIDYIISDLLQLKDILQ
  soluble on expression in E. coli: not soluble

## MSKYAILGLVLVGTVASLDFIGRTQSAAIKGRLVCEGKPASGVKVKLMESDNSFGPGFLDSDDKMASGKADSHGEFNLSGSTKEITGIEPYLVVFHDCKDGITPCQRVFRVNVPKSYTNSGSSAKKTYDAGVIELAGKYPGETRSCLN
  soluble on expression in E. coli: not soluble

## MGSDKIHHHHHHMNQPDAYLWEQHIPGGCHWSGILRRGTTLRMTDVSGGANASVLFFNQEEKLERYNMADTLKSQHTFRLTKGHACHSDMGRIFCCITADSAGWHDTVCGLSDADLIRRKYGTARYQEHRNQMFRNGLDGMLIELGKWGLGMRDVVSNINFFSKVTANSAGELTFHSGNSKAGDHVDLSFEMDTLVVLSAAPHPLDPSTTYQPGAVNLAAFATPSSAIAECAHISENQRARQNTECLYACHGGAA
  soluble on expression in E. coli: not soluble
